Data published in patent publication US20240301049A1 (Ablynx, published 2024).
Several values for one entry are separate records, joined by “and”; a condition that tells them apart may be missing. Equal values may be shown once.

Experiments:
human IL11 = molecular target: T1, human IL11 (human, UniProt P20809 22-199); test: SPR (ProteOn XPR36), target immobilized
T1 sequence (looked up): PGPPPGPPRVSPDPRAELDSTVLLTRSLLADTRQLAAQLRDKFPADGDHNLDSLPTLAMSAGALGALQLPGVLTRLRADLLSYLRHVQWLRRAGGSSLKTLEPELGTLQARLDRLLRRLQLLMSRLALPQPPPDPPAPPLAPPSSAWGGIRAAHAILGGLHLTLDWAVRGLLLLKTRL

human CNTF = molecular target: T2, human CNTF (human, UniProt P26441 2-200); test: SPR (ProteOn XPR36), target immobilized
T2 construct: also called ciliary neurotrophic factor
T2 sequence (looked up): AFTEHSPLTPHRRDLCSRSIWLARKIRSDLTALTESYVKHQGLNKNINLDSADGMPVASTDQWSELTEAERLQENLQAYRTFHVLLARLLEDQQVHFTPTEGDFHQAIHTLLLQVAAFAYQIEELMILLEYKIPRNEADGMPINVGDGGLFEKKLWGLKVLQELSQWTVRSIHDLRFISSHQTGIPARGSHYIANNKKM

human TRAIL = human TRAIL (human, UniProt P50591 114-281, limits assumed); test: SPR (ProteOn XPR36), target immobilized
Chain of human TRAIL (P50591 114-281 limits assumed): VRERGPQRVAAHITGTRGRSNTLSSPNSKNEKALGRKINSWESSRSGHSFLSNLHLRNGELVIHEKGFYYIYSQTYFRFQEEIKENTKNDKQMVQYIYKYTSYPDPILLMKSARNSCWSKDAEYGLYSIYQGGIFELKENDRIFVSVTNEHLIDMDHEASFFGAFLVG

human LIGHT = molecular target: T3, human LIGHT (human, UniProt O43557 74-240, limits assumed); test: SPR (ProteOn XPR36), target immobilized
T3 construct: also called hLIGHT
T3 sequence (O43557 74-240 limits assumed): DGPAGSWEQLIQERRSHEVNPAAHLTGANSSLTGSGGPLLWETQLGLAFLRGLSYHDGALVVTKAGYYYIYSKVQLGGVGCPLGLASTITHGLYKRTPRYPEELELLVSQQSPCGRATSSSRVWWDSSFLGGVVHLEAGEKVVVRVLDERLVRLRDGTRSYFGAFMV

human RANKL = molecular target: T4, human RANKL (human, UniProt O14788 140-317, limits assumed); test: SPR (ProteOn XPR36), target immobilized
T4 construct: also called hRANKL
T4 sequence (looked up): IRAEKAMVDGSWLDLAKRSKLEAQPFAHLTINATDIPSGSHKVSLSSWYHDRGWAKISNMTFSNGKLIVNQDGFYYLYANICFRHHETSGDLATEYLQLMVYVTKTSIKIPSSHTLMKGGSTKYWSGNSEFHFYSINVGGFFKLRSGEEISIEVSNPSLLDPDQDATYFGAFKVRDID

human IL23 = molecular target: T5, human IL23 (human, UniProt Q9NPF7 20-189; P29460 23-328); test: SPR (ProteOn XPR36), target immobilized
T5 sequence (looked up) 1: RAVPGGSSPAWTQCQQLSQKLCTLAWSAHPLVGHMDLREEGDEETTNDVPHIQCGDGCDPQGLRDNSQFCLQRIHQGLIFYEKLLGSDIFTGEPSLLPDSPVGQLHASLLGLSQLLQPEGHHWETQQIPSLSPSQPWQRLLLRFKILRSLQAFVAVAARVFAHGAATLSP
T5 sequence (looked up) 2: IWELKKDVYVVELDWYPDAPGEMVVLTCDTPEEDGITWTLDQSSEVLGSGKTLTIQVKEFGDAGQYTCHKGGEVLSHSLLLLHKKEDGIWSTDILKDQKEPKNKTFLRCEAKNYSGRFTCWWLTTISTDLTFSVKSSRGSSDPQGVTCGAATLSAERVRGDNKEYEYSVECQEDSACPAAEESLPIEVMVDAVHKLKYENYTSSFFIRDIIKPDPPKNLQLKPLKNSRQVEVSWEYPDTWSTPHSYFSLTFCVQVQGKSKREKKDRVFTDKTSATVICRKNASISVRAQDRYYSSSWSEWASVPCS

human IL-6 [1] = molecular target: T6, human IL-6 (human, UniProt P05231 30-212); test: in-solution affinity, Gyrolab
T6 construct: also called hIL-6
Description: (§1) Fitting of the dilution series was done using Gyrolab Analysis software, where KD- and receptor-controlled curves were analyzed to determine the KD value.

mouse serum albumin = molecular target: T7, mouse serum albumin (mouse, UniProt P07724 25-608); test: in-solution affinity, Gyrolab
T7 construct: also called mouse SA
Description: as §1

cyno TNF-α [2] = molecular target: T8, cyno TNF-α (cynomolgus monkey, UniProt P79337 77-233); test: in-solution affinity, Gyrolab
T8 construct: also called cynomolgus monkey TNF-α
T8 sequence (P79337 77-233 limits assumed): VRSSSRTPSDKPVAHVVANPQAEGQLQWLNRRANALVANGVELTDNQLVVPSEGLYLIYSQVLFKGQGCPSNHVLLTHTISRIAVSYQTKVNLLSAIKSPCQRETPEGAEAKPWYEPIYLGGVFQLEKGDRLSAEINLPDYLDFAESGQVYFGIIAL
Description: as §1

human TNF-α [3] = molecular target: T9, human TNF-α (human, UniProt P01375 77-233); test: in-solution affinity, Gyrolab
T9 construct: also called hTNF-α; recombinant soluble hTNF-α
T9 sequence (P01375 77-233 limits assumed): as the sequence (P79337 77-233 limits assumed) above, with V37L, T44R, N72T, L138R counted along it
Description: as §1

cyno serum albumin = molecular target: T10, cyno serum albumin (cynomolgus monkey, UniProt A2V9Z4 25-608); test: in-solution affinity, Gyrolab
T10 construct: also called cyno SA
T10 sequence (A2V9Z4 25-608 limits assumed): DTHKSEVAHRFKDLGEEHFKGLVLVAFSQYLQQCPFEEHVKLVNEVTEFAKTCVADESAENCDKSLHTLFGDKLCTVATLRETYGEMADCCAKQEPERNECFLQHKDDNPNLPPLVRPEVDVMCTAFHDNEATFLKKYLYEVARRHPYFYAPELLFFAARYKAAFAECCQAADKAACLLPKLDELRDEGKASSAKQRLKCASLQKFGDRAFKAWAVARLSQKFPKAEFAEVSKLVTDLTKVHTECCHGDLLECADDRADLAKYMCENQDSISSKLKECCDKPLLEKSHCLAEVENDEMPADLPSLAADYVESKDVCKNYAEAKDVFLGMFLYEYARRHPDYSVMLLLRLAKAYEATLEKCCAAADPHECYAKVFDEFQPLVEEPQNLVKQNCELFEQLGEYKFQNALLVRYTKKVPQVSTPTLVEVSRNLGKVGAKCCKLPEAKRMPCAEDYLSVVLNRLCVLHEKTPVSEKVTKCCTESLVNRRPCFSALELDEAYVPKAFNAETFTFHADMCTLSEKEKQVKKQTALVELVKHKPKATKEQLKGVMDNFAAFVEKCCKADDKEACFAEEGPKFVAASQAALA
Description: as §1

human serum albumin = molecular target: T11, human serum albumin (human, UniProt P02768 25-609); test: in-solution affinity, Gyrolab
T11 construct: also called HSA; human SA
T11 sequence (P02768 25-609 limits assumed): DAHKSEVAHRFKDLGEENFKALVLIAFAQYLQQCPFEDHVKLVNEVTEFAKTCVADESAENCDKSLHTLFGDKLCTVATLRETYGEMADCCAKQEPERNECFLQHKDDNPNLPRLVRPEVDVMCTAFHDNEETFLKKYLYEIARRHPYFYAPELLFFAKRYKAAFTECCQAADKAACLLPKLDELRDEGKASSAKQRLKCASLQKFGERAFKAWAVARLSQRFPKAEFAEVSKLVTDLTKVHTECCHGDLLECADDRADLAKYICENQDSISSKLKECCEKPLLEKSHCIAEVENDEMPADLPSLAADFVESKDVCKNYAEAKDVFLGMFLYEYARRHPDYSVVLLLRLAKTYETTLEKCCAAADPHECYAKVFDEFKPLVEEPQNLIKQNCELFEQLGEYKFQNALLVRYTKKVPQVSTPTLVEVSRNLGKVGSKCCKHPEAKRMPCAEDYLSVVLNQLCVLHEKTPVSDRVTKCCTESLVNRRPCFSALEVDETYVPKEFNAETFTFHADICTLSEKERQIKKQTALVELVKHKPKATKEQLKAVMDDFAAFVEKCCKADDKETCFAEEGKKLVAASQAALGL
Description: as §1

cyno IL-6 [4] = molecular target: T12, cyno IL-6 (cynomolgus monkey, UniProt P79341 28-212, limits assumed); test: cell-based or functional assay
T12 sequence (looked up): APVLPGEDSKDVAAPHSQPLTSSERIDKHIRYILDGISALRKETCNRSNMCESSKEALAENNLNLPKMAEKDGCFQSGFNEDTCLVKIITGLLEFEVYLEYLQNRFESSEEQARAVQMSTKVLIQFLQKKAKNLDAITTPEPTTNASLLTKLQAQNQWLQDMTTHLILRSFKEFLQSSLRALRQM

human IL-6 [5] = molecular target: T6, human IL-6; test: cell-based or functional assay
cyno TNF-α [6] = molecular target: T8, cyno TNF-α; test: cell-based or functional assay
human TNF-α [7] = molecular target: T9, human TNF-α; test: cell-based or functional assay
cyno TNF-α [8] = molecular target: T8, cyno TNF-α; test: cell-based or functional assay; remark: listed apart in the source
human TNF-α [9] = molecular target: T9, human TNF-α; test: cell-based or functional assay; remark: listed apart in the source
cyno IL-6 [10] = molecular target: T12, cyno IL-6; test: cell-based or functional assay; remark: listed apart in the source
human IL-6 [11] = molecular target: T6, human IL-6; test: cell-based or functional assay; remark: listed apart in the source
cyno TNF-α [12] = molecular target: T8, cyno TNF-α; test: cell-based or functional assay; remark: listed apart in the source
human TNF-α [13] = molecular target: T9, human TNF-α; test: cell-based or functional assay; remark: listed apart in the source

B1: F027201062 (bispecific antibody)
chain: DVQLVESGGGVVQPGGSLRLSCAASGRTFSNYAMAWFRQAPGKEREFVAVISYAGGRTYYADSVKGRFTISRDNAKNTVYLQMNSLRPEDTALYYCAAVDSPLIATHPRGYDYWGQGTLVTVSSGGGGSGGGSEVQLVESGGGVVQPGGSLRLSCAASGFTFRSFGMSWVRQAPGKGPEWVSSISGSGSDTLYADSVKGRFTISRDNSKNTLYLQMNSLRPEDTALYYCTIGGSLSRSSQGTLVTVSSGGGGSGGGSEVQLVESGGGVVQPGGSLRLSCAASGFTLAYYAIGWFRQAPGKEREGVSCISGSVGTTYYADSVKGRFTISRDNAKNTVYLQMNSLRPEDTALYYCVRSSWFDCGVQGRDLGNEYDYRGQGTLVTVSSGGGGSGGGSEVQLVESGGGVVQPGGSLRLSCTASGFTFSTADMGWFRQAPGKGREFVARISGIDGTTYYDEPVKGRFTISRDNSKNTVYLQMNSLRPEDTALYYCRSPRYADQWSAYDYWGQGTLVKVSSA
notes: anti-IL-6 (17C04, 6B12), anti-HSA (ALB23002), anti-TNF-α (6C11), C-terminal alanine; produced in Pichia pastoris; also called ISVD construct F027201062; Nanobody F027201062
- binding result (human IL11): no binding (tested: 300 nM)
- binding result (human CNTF): no binding (tested: 300 nM)
- binding result (human TRAIL): no binding (tested: 300 nM)
- binding result (human LIGHT): no binding (tested: 300 nM)
- binding result (human RANKL): no binding (tested: 300 nM)
- binding result (human IL23): no binding (tested: 300 nM)
- Kd (human IL-6 [1]): 0.0073 nM and 0.0053 nM and 0.003 nM
- Kd (mouse serum albumin): 58.5 nM and 62.2 nM and 56 nM
- Kd (cyno TNF-α [2]): 0.0538 nM and 0.0237 nM and 0.0259 nM
- Kd (human TNF-α [3]): 0.0057 nM and 0.0052 nM and 0.0099 nM
- Kd (cyno serum albumin): 6.7 nM and 4.9 nM and 6.1 nM
- Kd (human serum albumin): 7.6 nM and 6.4 nM and 6.2 nM
- Ratio IC50 cyno IL-6/hIL-6 (cyno IL-6 [4]): 0.5 ratio
- IC50 hIL-6 TF1 proliferation assay (human IL-6 [5]): 0.134 nM
- Ratio IC50 cyno TNFα/hTNFα (cyno TNF-α [6]): 2 ratio
- IC50 hTNF-α Nfkb assay (human TNF-α [7]): 0.0978 nM
- IC50, HEK293_NFκB-NLucP reporter assay (cyno TNF-α [8]): 0.16 nM and 0.0837 nM and 0.23 nM
- IC50, HEK293_NFκB-NLucP reporter assay (human TNF-α [9]): 0.0757 nM and 0.0257 nM and 0.0586 nM
- average IC50, IL-6 induced TF-1 proliferation (cyno IL-6 [10]): 0.056 nM
- IC50 of IL-17A/sIL-6R induced VEGF-A release, RA-FLS (human IL-6 [11]): 2 nM
- average IC50, IL-6 induced TF-1 proliferation (human IL-6 [11]): 0.034 nM
- average IC50, NFκB reporter assay (cyno TNF-α [12]): 0.158 nM
- IC50 of SEB-induced CCL4 release, human whole blood (human TNF-α [13]): 0.92 nM
- IC50 of SEB-induced MCP-1 release, human whole blood (human TNF-α [13]): 3.2 nM
- average IC50, NFκB reporter assay (human TNF-α [13]): 0.053 nM
